Among the data in a protein production outcome set (Wang et al. 2014) are protein production values, retold here.
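Further: failed if final PepcDB status was selected cloned or expressed and not failed if soluble or beyond.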

A short description of this series: label from the status in PepcDB records.
For the sequence “MMNRNLVVALAGNPNCGKTSLFNELTGSKQHVGNWPGVTVEKKEGKLKFEGREITIVDLPGTYSLGAYSEDEVVARDFILKDKPDVVINVVDACNLERNLYLTTQILETGAKVVLALNMMDEANTRNIDINIEKLQKSIGIPVVPTVATKKQGIKELVKNAIKLGDSESEELYTIDYGSDIQKEVDGIKAAIDEASVTLEYPKAWVSLKLLENDDYIRKYIDNSIKDDEVKHKVSEGIENLTSIIGYEPDAFIVDKRYELISKFVKNSVKKNEVQEESTSDKIDKVLTNKFLGIPIFAIIMFAVYQVSINFGNGTLSDLINDSLGQLGTNIAFTLDGFGVPKIIGAFVRDGVFAGVGSVLGFFPMILIMFFLISLLEDSGYMARAAYVMDRLMSAVGLHGKTAVSLIVGSGCNVAGIMSARTLESKKDRMIAILITPFISCPARLTVYGVFVGAFFAKQKLGIFSLGGIIIFLLYALGIFVAICAGKFFSSKVFEGETSYFVMELPPYRLPTLKGILIHMWEKSGHFLKKAGTIILGVCIIVWILADLPAGVEYGSKDSLLGIIGTFIAPIFKPAGFGSWQAGVALITGFAAKEAVVGTLGTIYGVNEGTQLFHAIHNTFTPLSAISFMIMTLLYVPCVATIGAVKSETNSNKWTVAVIIYTCVIGWVLATIFYQVGRLLGYV”, the protein production entry is reported as “failed”. As for “HNESIRYLIVPGWQGSPDDHWQAHWQNSLPNSTRVEQADWLKPRREDWVGELQRTIAAQSTPVILIAHSLGCVTVAHWAQLAPLETLRQVQGALLVAPADVERPNCPPALRNFAPIPADLLPFPTQVVSSDNDPAVSSQRAIEMARHWGAELGFLSQAGHINVKSGHQRWEQGFAYLYRLQNRLEQ”, the entry is “failed”; as for “MKDVLAEYASRIVSAEEAVKHIKNGERVALSHAAGVPQSCVDALVQQADLFQNVEIYHMLCLGEGKYMAPEMAPHFRHITNFVGGNSRKAVEENRADFIPVFFYEVPSMIRKDILHIDVAIVQLSMPDENGYCSFGVSCDYSKPAAESAHLVIGEINRQMPYVHGDNLIHISKLDYIVMADYPIYSLAKPKIGEVEEAIGRNCAELIEDGATLQLGIGAIPDAALLFLKDKKDLGIHTEMFSDGVVELVRSGVITGKKKTLHPGKMVATFLMGSEDVYHFIDKNPDVELYPVDYVNDPRVIAQNDNMVSINSCIEIDLMGQVVSECIGSKQFSGTGGQVDYVRGAAWSKNGKSIMAIPSTAKNGTASRIVPIIAEGAAVTTLRNEVDYVVTEYGIAQLKGKSLRQRAEALIAIAHPDFREELTKHLRKRFG”, “not failed”. With “MKTFNESNGTNANVLMVGLTLVQAAAAKGAVCLDGSVPGYHLCRGYGSGANNWIIQLQGGAWCDSIQNCQSRKGSGYGSSTLMEKELAFLGLLSNKAAENPDFYNWNKVKVRYCDGASFDGDSENKAAQLQYRGKRIFLAVMEDLMEKGMRQAKQALLSGCSSGGLSAILRCDDFNNLFPPTTTVKCMSDAGFFLDAVDVSGGHSLRRMYSGVVNTQGLQNTLPPTCTSHIKPFLCFFPQYIINQVKTPLFILNSGFDSWQIGNSLAPPSADKSGSWHNCSFSFRCTASQMHFLEGFKMSMLDALKTFSKFSKNGVLITSGWAHCQAERQDTWFPGYSGAGKAKGIAVAVGDWYFERTKQNSS”, the protein production result is recorded as “failed”. As for “FTLEEEDITGTWYVKAMVVDKDFPEDRRPRKVSPVKVTALGGGNLEATFTFMREDRCIQKKILMRKTEEPGKFSAYGGRKLIYLQELPGTDDYVFYCKDQRRGGLRYMGKLVGRNPNTNLEALEEFKKLVQHKGLSEEDIFMPLQTGSCVLEH”, the entry is “failed”; as for “MITVVGGTFSKLHKGHKALLNTAIDTGNEVVIGLTSDEYVKKNKVYPAIPYSVRYRTLYNYMIKRTNKFRIRQIDDRNGNAPYEKDYEVIVVSPETYPRSLKINEIRISNGLPPLKIIRVPYVLAQDLFPISSTRIINGEID”, “not failed”; as for “MEGSTGFDGDATTFFAPDAVFGDRVRRFQEFLDTFTSYRDSVRSIQVYNSNNAANYNDDQDDADERDLLGDDDGDDLEKEKKAASSTSLNILPHRIIISLDDLREFDRSFWSGILVEPAYFIPPAEKALTDLADSMDDVPHPNASAVSSRHPWKLSFKGSFGAHALSPRTLTAQHLNKLVSVEGIVTKTSLVRPKLIRSVHYAAKTGRFHYRDYTDATTTLTTRIPTPAIYPTEDTEGNKLTTEYGYSTFIDHQRITVQEMPEMAPAGQLPRSIDVILDDDLVDKTKPGDRVNVVGVFKSLGAGGMNQSNSNTLIGFKTLILGNTVYPLHARSTGVAARQMLTDFDIRNINKLSKKKDIFDILSQSLAPSIYGHDHIKKAILLMLMGGVEKNLENGSHLRGDINILMVGDPSTAKSQLLRFVLNTASLAIATTGRGSSGVGLTAAVTTDRETGERRLEAGAMVLADRGVVCIDEFDKMTDVDRVAIHEVMEQQTVTIAKAGIHTTLNARCSVIAAANPVFGQYDVNRDPHQNIALPDSLLSRFDLLFVVTDDINEIRDRSISEHVLRTHRYLPPGYLEGEPVRERLNLSLAVGEDADINPEEHSNSGAGVENEGEDDEDHVFEKFNPLLQAGAKLAKNKGNYNGTEIPKLVTIPFLRKYVQYAKERVIPQLTQEAINVIVKNYTDLRNDDNTKKSPITARTLETLIRLATAHAKVRLSKTVNKVDAKVAANLLRFALLGEDIGNDIDEEESEYEEALSKRSPQKSPKKRQRVRQPASNSGSPIKSTPRRSTASSVNATPSSARRILRFQDDEQNAGEDDNDIMSPLPADEEAELQRRLQLGLRVSPRRREHLHAPEEGSSGPLTEVGTPRLPNVSSAGQDDEQQQSVISFDNVEPGTISTGRLSLISGIIARLMQTEIFEEESYPVASLFERINEELPEEEKFSAQEYLAGLKIMSDRNNLMVADDKVWRV”, “failed”.

Turning to “MKPKVFITREIPEVGIKMLEDEFEVEVWGDEKEIPREILLKKVKEVDALVTMLSERIDKEVFENAPKLRIVANYAVGYDNIDIEEATKRGIYVTNTPDVLTDATADLAFALLLATARHVVKGDRFVRSGEWKKRGVAWHPKWFLGYDVYGKTIGIIGLGRIGQAIAKRAKGFNMRILYYSRTRKEEVERELNAEFKPLEDLLRESDFVVLAVPLTRETYHLINEERLKLMKKTAILINIARGKVVDTNALVKALKEGWIAGAGLDVFEEEPYYNEELFKLDNVVLTPHIGSASFGAREGMAELVAKNLIAFKRGEIPPTLVNREVIKIRKPGFE”, the protein production entry is reported as “not failed”. As for “MISTLNEIMKCIEDNDTIIIHRHVRPDPDAYGSQLGLKYYIQQKFPQKQVFAVGEAESSLSFIGELDNIDDKTYQDALVIVCDTANAPRIDDERYSTGSKLIKIDHHPAVDQYGDINLVNTNASSTSEIIYDLISHFNDEAIVNKDIASVLYLGIVGDTGRFLFNNTSEHTMEIAGKLIGHDIDHNALLNKMMEKDPKMLPFQGYVLQHFELMDDGFCQVKITEDVLEQFGIQPNEASQFVNTIADIKGLKIWVFAVDEGSEIRCRLRSKGQLIINDIAQDFGGGGHPNASGVSVNSWDEFEQLATALRTKLN”, the protein production result is “failed”. On to “MGRKPIKAGAIPRFRVRPQKSGVVYYYYDHGGKPRKETPLGRDYGLAIKRWAELEHAQITPAIAVTFRHVAERYRAEVIPTKAYNTQRMHHVYLNYLLQFFDDPPAPFESIKPVNIRQYLDWRPFKVSANREVALFSHLWNWARSKGITDLPNPCGGIRRNKERGRDVYIDDTTYRAVYQAADQTLRDAMDLAYLTGQRVSDVVSMDERHIVNGALEICQAKTGVKLAIAITGELAVLIKRIFDRKRGMKLRSTRLIVDEKGLGLNWKKLAYRFRKVRAAAGIAKEVFQFRDLRAKAATDKADLAGDIRQAQAQLGHTSVVMTEHYVRKRKGAKVTPTR”, for which the protein production entry is “failed”. As for “MTTEVKQSPRERLLEAAAALTYRDGVGIGVEALCKAAGVSKRSMYQLFESKDELLAASLKERSAAFVAKALPPADDGRSPRERILYVFERVESQAGAPDFQGCRYLAVQIELKDQAHPASRVAYQIKADLMAFFRSEAERGGASDPDLLARQLILVFDGASARAGIGADNLTGLIVPTLTTLLDAADMH”, the entry is “not failed”. “MQAYIDRIGDFIQANQDWAGPITFLLTFGESMVLVGLLIPATALMLLTGGLIGAGTLSPWGVLAWGIAGAIAGDAVSYALGRWLGPGVMRRWPLNTQRSAVARARLFFYRYGFASVLIGRFLGPIRSTIPTVAGIMGMHHLRFQLANVLSAVAWLPLMLAPGYITARGLGAMDNAQHIGLAAGMGASVLIGCWLLVAVMRKRRQPARANRRP”: the protein production result is reported as “not failed”. Consider “RQQSMAERHDYDQKEEKTDGGELVSSYMCSPETAAEEFEISKKLYAQLTGRSQSEKHDIIMYRIIQSFKPDEVSPEEAHKIGCELAMKFTGGQHQFVVATHTDKRHIHTHIEFNSTNLNCDAKFQNVKNSAFILRRMNDELCRAHGLSVIENPKKKARPQKEMAAAQYGVSHKKQLQQAIDRLLPECNHYEEFLAKMRAEGYEVVDGKNPGFRLPGWDRPTRVNRLG”, for which the protein production result is “not failed”. As for “MRWDVVAWAVLALLLIAAETLAPGAFLLWMGIAAAAVCVLVLAVPGTSVLLQIVAFVVLSFVAIQVYRTWFRGKGRQSDRPLLNRRAEQLIGRSVLLDQAIVDGRGRAKVDDAFWVVSGPDLPAGALVRIVAVDGMTLQVQPNT”, the entry is “failed”; as for “MMIMERHYTLKEASKILGVSIKTLQRWDKAGKIKCIRTLGGKRRVPESEIKRILGIKDKEQRKIIGYARVSFNAQKDDLERQIQLIKSYAEENGWDIQILKDIGSGLNEKRKNYKKLLKMVMNRKVEKVIIAYPDRLTRFGFETLKEFFKSYGTEIVIINKKHKTPQEELVEDLITIVSHFAGKLYGMHSHKYKKLTKTVKEIVREEDAKEKE”, “failed”; as for “MSAQSSVQPELAVRQWRTPLELGFLGVVWGCSFLFMRVAAPKFGTVVLVEIRLALGALVLLPFLWLARERFPLHRWPMLAAIGVLNSALPFLLFAWGAQHAPAAVGAICNAMTVLFTALIAFLFFGERIGTRRALALLVGFIGVLVLATGKSAGLSVGPAALAGATASLLYGIGYNLVKRHMGDLPPAASAASTLGCSALLLAPLAWWQWPTTPVPAVAWACATALGVVCTGLAFLMYYRLIQRIGPARASTVTYLVPVFGALLAWSLLGEPLTWTMLVAAVLILGSVAFSQRAR”, “failed”. With “MSRQIFYMPFSLRFLFLLIIITIFGLGSLFLGVIVSAFMKIGFSAEDALLILFLSLLGSGINIPLTTLKSDIPVVKDNYIKFFGISYRIPTRQIVRNETLLAINVGGAVIPVLISAYLLTQFPSSLLLAGAGVAIVAIVTHSVARPIKGVGIATPALIPPLTSVLSAVLLTSIVHIPGCPAEPCRVIIAYTGGVLGTLIGADLLNLGKIKNLGAPVASIGGAGTFDGIFLSGFIALLLI” the entry was “failed”. Take “MDRFLVKGAQGGLLRKQEEQEPTGEEPAVLGGDKESTRKRPRGEAPGNGGHSAGPSWRHIRAEGLDCSYTVLFGKAEADEIFQELEKEVEYFTGALARVQVFGKWHSVPRKQATYGDAGLTYTFSGLTLSPKPWIPVLERIRDHVSGVTGQTFNFVLINRYKDGCDHIGEHRDDERELAPGSPIASVSFGACRDFVFRHKDSRGKSPSRRVAVVRLPLAHGSLLMMNHPTNTHWYHSLPVRKKVLAPRVNLTFRKILLTKK”: the protein production entry was “failed”. With “MKYLLLPVVVLLAGCQSLSQSDGNAITDNSDSQVETAHPVEINQALLADESIDVIHPVADVDFSLNNTLKDQKAIDENNIWPRIRSQLTFDIPNQKRLVSQRNWYVKHPSYLKRVAKRAEPFLYYIVQELEKNDMPIELAFLPIVESAFDPFAYSHGRASGMWQFVPGTGERFGMKQNWWYDGRRDVVASTEGAIKYLKYLHKFFDGDWMLALAAYNSGEGRVRNAVRKNKRLGKPTDFWSLDLPKETRAYVPKLLALADIVKRPEDFNLSLYSIDNKSVLSQVDIKSQLDLAKAATLAGLSLAELQRLNPGFNRWATDPDGPHRLLLPSHTVEKFELGLSKLSKKDRLAWQRYKIKSGDNLGLIANKFNTRVDLIQQVNNIKGNQIRAGKHLLIPVAAKSLDSYVFSQEQRIAKKQNRPQKGRKLVHTVKSGDNLWDIGRKYKVNSKSIAKWNGFAPRDTLKLGQKLVIWQKSDTKSNKSNFANSKTGNNVENAIMRNITYKVRRGDSFARIADKFNVRISDIERWNNLDRKKYLQPGQRLKLSVDVTNNI” the entry was “failed”.
